Results published in PMC10786891, “Massively parallel profiling of RNA-targeting CRISPR-Cas13d”.
Numbering of substitutions follows the chain as printed. Names and notes keep the numbering of the source.

T1: EsCas13d, nuclease-dead (Eubacterium siraeum, UniProt B0MS50, R295A;H300A;R849A;H854A)
T1 sequence: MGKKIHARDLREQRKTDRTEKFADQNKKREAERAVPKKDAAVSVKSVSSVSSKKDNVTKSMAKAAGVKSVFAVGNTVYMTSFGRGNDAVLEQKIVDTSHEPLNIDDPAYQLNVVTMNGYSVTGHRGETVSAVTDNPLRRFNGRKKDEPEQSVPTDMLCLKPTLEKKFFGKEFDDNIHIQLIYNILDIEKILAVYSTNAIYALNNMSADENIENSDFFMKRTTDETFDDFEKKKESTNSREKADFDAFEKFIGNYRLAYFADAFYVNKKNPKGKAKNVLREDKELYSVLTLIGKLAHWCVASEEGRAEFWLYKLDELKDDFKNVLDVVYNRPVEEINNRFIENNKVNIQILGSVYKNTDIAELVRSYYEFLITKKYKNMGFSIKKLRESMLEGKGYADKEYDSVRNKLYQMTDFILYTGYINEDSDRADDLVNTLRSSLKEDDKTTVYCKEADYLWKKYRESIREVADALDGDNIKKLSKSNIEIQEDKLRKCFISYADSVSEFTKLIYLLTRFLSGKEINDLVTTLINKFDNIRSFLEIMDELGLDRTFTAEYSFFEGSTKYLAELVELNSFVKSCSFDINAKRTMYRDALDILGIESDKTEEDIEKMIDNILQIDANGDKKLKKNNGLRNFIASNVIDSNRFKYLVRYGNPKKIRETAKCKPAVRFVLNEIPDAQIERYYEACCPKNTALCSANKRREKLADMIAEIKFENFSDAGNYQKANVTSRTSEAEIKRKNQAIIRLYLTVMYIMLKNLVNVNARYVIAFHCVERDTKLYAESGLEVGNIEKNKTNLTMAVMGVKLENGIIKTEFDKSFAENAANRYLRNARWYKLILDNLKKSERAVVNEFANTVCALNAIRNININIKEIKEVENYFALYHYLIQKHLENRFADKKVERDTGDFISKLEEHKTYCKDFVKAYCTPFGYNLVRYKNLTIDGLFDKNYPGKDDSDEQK

B1: target 2 MT 5'PFS GCU 3'PFS CUU (mixed)
RNA 1: CACCCGUGCAAAAUUGCAGGGGUCUAAAACCUUCUCCAAAUUGUUUCAUCCU
RNA 2: GGGAAUGGAUCCACAUCUACGAAUUCGCUAGGAUGAAACAAUUUGGAGAAGCUUAGAUCGGAAGAGCACACGU
B2: target 2 MT 5'PFS AGC 3'PFS CAC (mixed)
RNA 1: B1 RNA 1
RNA 2: B1 RNA 2 with G27A, C28G, U29C, U53A, U54C
B3: target 2 MT 5'PFS AUA 3'PFS CUU (mixed)
RNA 1: B1 RNA 1
RNA 2: B1 RNA 2 with G27A, C28U, U29A
B4: target 2 MT 5'PFS AGA 3'PFS ACC (mixed)
RNA 1: B1 RNA 1
RNA 2: B1 RNA 2 with G27A, C28G, U29A, C52A, U53C, U54C
B5: target 2 MT 5'PFS AGC 3'PFS CAG (mixed)
RNA 1: B1 RNA 1
RNA 2: B1 RNA 2 with G27A, C28G, U29C, U53A, U54G
B6: target 2 MT 5'PFS AAU 3'PFS CGC (mixed)
RNA 1: B1 RNA 1
RNA 2: B1 RNA 2 with G27A, C28A, U53G, U54C
B7: target 2 MT 5'PFS GAU 3'PFS UUA (mixed)
RNA 1: B1 RNA 1
RNA 2: B1 RNA 2 with C28A, C52U, U54A
B8: target 2 MT 5'PFS UUA 3'PFS CCG (mixed)
RNA 1: B1 RNA 1
RNA 2: B1 RNA 2 with G27U, C28U, U29A, U53C, U54G
B9: target 2 MT 5'PFS ACC 3'PFS CUA (mixed)
RNA 1: B1 RNA 1
RNA 2: B1 RNA 2 with G27A, U29C, U54A
B10: target 2 MT 5'PFS AGC 3'PFS CAU (mixed)
RNA 1: B1 RNA 1
RNA 2: B1 RNA 2 with G27A, C28G, U29C, U53A
B11: target 2 MT 5'PFS AAU 3'PFS CGG (mixed)
RNA 1: B1 RNA 1
RNA 2: B1 RNA 2 with G27A, C28A, U53G, U54G
B12: target 2 MT 5'PFS AGA 3'PFS ACA (mixed)
RNA 1: B1 RNA 1
RNA 2: B1 RNA 2 with G27A, C28G, U29A, C52A, U53C, U54A
B13: target 2 MT 5'PFS CUU 3'PFS AAU (mixed)
RNA 1: B1 RNA 1
RNA 2: B1 RNA 2 with G27C, C28U, C52A, U53A
B14: target 2 MT 5'PFS AGA 3'PFS ACG (mixed)
RNA 1: B1 RNA 1
RNA 2: B1 RNA 2 with G27A, C28G, U29A, C52A, U53C, U54G
B15: target 2 MT 5'PFS AGC 3'PFS CAA (mixed)
RNA 1: B1 RNA 1
RNA 2: B1 RNA 2 with G27A, C28G, U29C, U53A, U54A
B16: target 1 C6G,C21U (mixed)
RNA 1: CACCCGUGCAAAAAUGCAGGGGUCUAAAACUGAGCGGAUAACCUCUCUAUGG
RNA 2: GGGAAUGGAUCCACAUCUACGAAUUCGUACUAUAGAGAGGUUAUCGGCUCACCGAGAUCGGAAGAGCACACGU
B17: target 1 U3G,C7U (mixed)
RNA 1: B16 RNA 1
RNA 2: B16 RNA 2 with U31C, C45U, G46C, U49G

What follows are binders tested against T1, EsCas13d, nuclease-dead (assay: crRNA (strand 1, pre-loaded); Mg2+; 40 mM Tris-HCl pH 7.5, 150 mM NaCl, 6 mM MgCl2, 1 mM DTT, 0.1% Tween-20, 0.2 mg/ml BSA; 25 C; 10 min per concentration, then washed). Conditions: tags: His6-TwinStrep-SUMO cleaved; N-terminal SNAP kept (SNAP-Surface 488); label: 3' end held by stalled T7 RNA polymerase.

Row | Binder | Kd [nM]
1 | B1 | 17.5 ± 3
2 | B2 | 11.4 ± 2.6
3 | B3 | 20 ± 6
4 | B4 | 21 ± 9
5 | B5 | 6.7 ± 1.1
6 | B6 | 7.3 ± 1.3
7 | B7 | 23 ± 7
8 | B8 | 39 ± 4
9 | B9 | 9.7 ± 2.5
10 | B10 | 7.3 ± 1.3
11 | B11 | 4.6 ± 0.6
12 | B12 | 4.6 ± 1.1
13 | B13 | 4.3 ± 0.6
14 | B14 | 10.3 ± 1.8
15 | B15 | 7 ± 1.8
16 | B16 | 5.38 ± 0.17
17 | B17 | 5.39 ± 0.15
